Measurements: the supplement of paper PMC12042874
± gives the uncertainty stated by the source.

Test: amyloid nucleation score (Sup35N fusion, yeast selection) (log enrichment); library NNK3; higher = more nucleation; inactive = no reads after selection
How it was run: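 Using DiMSum, nucleation scores were taken as the log enrichment of output over input reads, centred on the mode score of non-aggregating sequences. The input and output reads came from Illumina sequencing of plasmid inserts, with sequences under 100 input reads excluded. The yeast were psi-negative, expressed Sup35N fused to peptides of 20 random codons, were induced with 100 μM copper sulfate for 24 hours, and were grown 7 days at 30°C on medium lacking adenine and uracil.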
With CRCNWENCCMDQL the amyloid nucleation score was “inactive”.
For HLVAVWVSWGILYRSVHCRS, the amyloid nucleation score was “inactive”.
With FSIQSRCAVGWLSIGSVTAR the amyloid nucleation score was “inactive”.
Work on EDSRLLGC yielded an amyloid nucleation score of 0.724 ± 0.14.
For ICIFVFFRYWHVVHVT, the amyloid nucleation score was “inactive”.
For MVNTM, the amyloid nucleation score was “inactive”.
With VVGIKKDRNNTYDSSWLASC the amyloid nucleation score was “inactive”.
In the case of WDNLCGTAFHAVN, the amyloid nucleation score is reported as “inactive”.
In the case of AAYADR, the amyloid nucleation score is reported as 0.008 ± 0.48.
With DTSVYFQSSTCCAKKSGHKP the amyloid nucleation score was “inactive”.
With SIIGKNYKFRATSINKGISM the amyloid nucleation score was “inactive”.
In the case of LLCSKARSCRVDRMKRGGWV, the amyloid nucleation score is reported as “inactive”.
With RSGLHVEGLRSLHRGKVGPC the amyloid nucleation score was “inactive”.
With WFPMSAKLYAHATHCVPLSL the amyloid nucleation score was “inactive”.
For YYLGLLTYRWGLRFFYLIVS, the amyloid nucleation score was “inactive”.
With SYWRLHVIIFLWFFYLRYFN the amyloid nucleation score was “inactive”.
With FFYNDVETVCNVICPKVYSD the amyloid nucleation score was “inactive”.
With LLRHDLYRVCTNRV the amyloid nucleation score was “inactive”.
For MFNFEFLC, the amyloid nucleation score was 2.33 ± 0.085.
Work on SVNNVAWWHYGKMRVNFTFS yielded an amyloid nucleation score of -0.552 ± 0.71.
In the case of IIRALARFLVNVGV, the amyloid nucleation score is reported as “inactive”.
Substance FGTCLNLYL has an amyloid nucleation score of 1.3 ± 0.11.
For TVLWFSC, the amyloid nucleation score was “inactive”.
CMQSEHTTSAYYRLDCS showed an amyloid nucleation score of -0.276 ± 0.41.
In the case of LVWSSRPTSW, the amyloid nucleation score is reported as “inactive”.
With WCNMVRVHMF the amyloid nucleation score was “inactive”.
With KNFSFKATDWIVKSSVARCR the amyloid nucleation score was “inactive”.
For GAMCIRWEG, the amyloid nucleation score was “inactive”.
Substance IQWFRQCSFRCSNHYSSAFK has an amyloid nucleation score of 1.44 ± 0.14.
In the case of YRLCLDSCIKIYLQGWVYVY, the amyloid nucleation score is reported as “inactive”.
In the case of VPGLHLSNPTAELDMQI, the amyloid nucleation score is reported as “inactive”.
CSCQRPKAFQVQWNGG showed an amyloid nucleation score of 0.789 ± 0.14.
For FNGEGFSRQG, the amyloid nucleation score was -0.457 ± 1.8.
In the case of TTMNVTFVPANLWCKSSHEA, the amyloid nucleation score is reported as “inactive”.
ASTLLHYCLLNSGYEWSGQC showed an amyloid nucleation score of 0.251 ± 0.81.
With TWYVLSNDNSCVYTGPTCQ the amyloid nucleation score was “inactive”.
For RDYILKT, the amyloid nucleation score was “inactive”.
For STRRSYNPCYWSGLYSSIGH, the amyloid nucleation score was “inactive”.
With GCHFLH the amyloid nucleation score was “inactive”.
For IWRGSKDYKSPVRHFSQAN, the amyloid nucleation score was “inactive”.
In the case of IRSTGLINFQYWKMKTFLII, the amyloid nucleation score is reported as “inactive”.
For REVRTGLNLIPRRIVSNHTF, the amyloid nucleation score was “inactive”.
With YDGCDS the amyloid nucleation score was “inactive”.
IIIRGSSVLVVRLNDEGYVL gave an amyloid nucleation score of 0.216 ± 0.63.
In the case of TAYMNQIVNRELYP, the amyloid nucleation score is reported as “inactive”.
For DVTTDDSSFRYMLKLLRGIT, the amyloid nucleation score was “inactive”.
In the case of ECYCWFVNWLSFCKNGYSGM, the amyloid nucleation score is reported as “inactive”.
With ESLIRVICMVDERSEQTWSG the amyloid nucleation score was “inactive”.
In the case of LISNAQA, the amyloid nucleation score is reported as “inactive”.
With NKFKHESNTNYIPSRQYKVW the amyloid nucleation score was “inactive”.
In the case of RYILRSL, the amyloid nucleation score is reported as “inactive”.
With KQVKMGVA the amyloid nucleation score was “inactive”.
For VLRETLR, the amyloid nucleation score was “inactive”.
For DFDLLSFIRSDVIPCVCSKG, the amyloid nucleation score was “inactive”.
ARATALAVFCIGTDYGSIES showed an amyloid nucleation score of -0.319 ± 0.37.
For SICCKVRTSTYVRLCMLVLP, the amyloid nucleation score was “inactive”.
With FMINSNNRFGISRRTLMSLT the amyloid nucleation score was “inactive”.
With VFHHIILRFN the amyloid nucleation score was “inactive”.
In the case of VYGASTLSAHMWR, the amyloid nucleation score is reported as “inactive”.
With YASYGSKGGITTLRRIISGS the amyloid nucleation score was “inactive”.
For LLDSVNGHCYMCLTIMGVRN, the amyloid nucleation score was “inactive”.
Substance NDFLDVGSVSSYVNTQLPMS has an amyloid nucleation score of -0.086 ± 0.8.
For NSNCYPLVI, the amyloid nucleation score was “inactive”.
With QLLFPGLWESATRILCENFM the amyloid nucleation score was “inactive”.
In the case of SSYIESQELHSWAVQLRLLV, the amyloid nucleation score is reported as “inactive”.
With KLEMYVARSCDCAYDRCWGR the amyloid nucleation score was “inactive”.
With REVYLMRSEPWRLLFDGKYR the amyloid nucleation score was “inactive”.
With CHCIYNQCVGFSVCGCRGFG the amyloid nucleation score was 2.35 ± 0.058.
In the case of ICDSDFRY, the amyloid nucleation score is reported as “inactive”.
In the case of DRGVLFRHIILGSPHIMNRV, the amyloid nucleation score is reported as “inactive”.
In the case of FLCRAVRDKNHDIGLCWELR, the amyloid nucleation score is reported as -0.488 ± 0.8.
With GVCGVLGFYFDPIITSL the amyloid nucleation score was “inactive”.
Work on GGVTFYMYCIRLVNDQQGHR yielded an amyloid nucleation score of 1.21 ± 0.098.
In the case of GAFSEDFRESGLFLNVREGE, the amyloid nucleation score is reported as “inactive”.
With SYNTYSVYGWGKGPRNYDWQ the amyloid nucleation score was “inactive”.
In the case of SSSTFPSSKIDYGTIR, the amyloid nucleation score is reported as “inactive”.
In the case of FTFCTCAKSAWTGLGLQGKI, the amyloid nucleation score is reported as “inactive”.
With SHFTEFPYLGLHTYAVVE the amyloid nucleation score was “inactive”.
In the case of YFFIPVKW, the amyloid nucleation score is reported as “inactive”.
For CCFNMW, the amyloid nucleation score was 1.46 ± 0.09.
In the case of YFNGATS, the amyloid nucleation score is reported as “inactive”.
For SNEGE, the amyloid nucleation score was “inactive”.
In the case of HVNNTKSSLVRLSVLMHSVS, the amyloid nucleation score is reported as “inactive”.
For GHVSTCPNDGAAALSCLELF, the amyloid nucleation score was “inactive”.
For GYDQKLES, the amyloid nucleation score was “inactive”.
In the case of ESLAWS, the amyloid nucleation score is reported as “inactive”.
For QFLLGSWYRLLRSGTVNSPS, the amyloid nucleation score was “inactive”.
With MYTTDYVYRVLVSHFRVPRM the amyloid nucleation score was “inactive”.
With LDAFRRLLEGASRTKCTF the amyloid nucleation score was “inactive”.
For TGFILLTTTVSAINVYQVYR, the amyloid nucleation score was 2.58 ± 0.056.
For YMRDVDFIRSEGG, the amyloid nucleation score was “inactive”.
With RVVLTVFMFLIQSENACKLH the amyloid nucleation score was “inactive”.
With FLDVFLEFSILIFPSVTFKC the amyloid nucleation score was “inactive”.
With LSLREE the amyloid nucleation score was “inactive”.
In the case of TVEVFNHMRERHNYMS, the amyloid nucleation score is reported as “inactive”.
In the case of RIVEGMYLYVLS, the amyloid nucleation score is reported as “inactive”.
VFTFRWHVWRDWLMSEHCDK showed an amyloid nucleation score of -0.296 ± 0.55.
For RFDDRG, the amyloid nucleation score was “inactive”.
For DYSHLCSNIQGIAFVVVIQN, the amyloid nucleation score was “inactive”.
For RLGTMVVDLVERARIEGDVF, the amyloid nucleation score was “inactive”.
In the case of VLCLLGSSVSS, the amyloid nucleation score is reported as “inactive”.
Work on SIICCAFLVVQFKER yielded an amyloid nucleation score of 2.62 ± 0.084.
For KFLITETGSEL, the amyloid nucleation score was “inactive”.
With RSSFKG the amyloid nucleation score was “inactive”.
For IYGWWLGTTYM, the amyloid nucleation score was 0.656 ± 0.21.
With HENYEFLFWWRESFS the amyloid nucleation score was “inactive”.
In the case of LGGNMTCLSQDYLRTSKELL, the amyloid nucleation score is reported as “inactive”.
With FNMYFCVIWLCDSFLIMCG the amyloid nucleation score was “inactive”.
With CFCQVSKANWLNR the amyloid nucleation score was “inactive”.
SCIIWKSWQV showed an amyloid nucleation score of 1.14 ± 0.095.
With KYGENDLRFENITYLFGV the amyloid nucleation score was “inactive”.
In the case of ANSSRDMCSLLVLVRGTQ, the amyloid nucleation score is reported as -0.385 ± 0.96.
In the case of FFVTR, the amyloid nucleation score is reported as “inactive”.
Work on RAALPMVFHRFLTFMDAFLV yielded an amyloid nucleation score of 1.83 ± 0.075.
In the case of VAADITSEA, the amyloid nucleation score is reported as “inactive”.
For SHYLLMFLVSDTLV, the amyloid nucleation score was “inactive”.
For NNDMCLYLTGRRFKG, the amyloid nucleation score was “inactive”.
For WDAPKCNSVNYLLKDHYHRC, the amyloid nucleation score was “inactive”.
With FVLQFSSGCYFGPD the amyloid nucleation score was “inactive”.
For KICGNRPGVSRYLVGLDVMC, the amyloid nucleation score was “inactive”.
CLTVHTVNIIGMNFIVNVAL gave an amyloid nucleation score of 2.72 ± 0.085.
Substance MNFGYNNSFAIYSVFYSYRC has an amyloid nucleation score of 2.69 ± 0.055.
In the case of HIEFNWPVGLARSWMFCFSH, the amyloid nucleation score is reported as “inactive”.
With YFGNSGWDHGWPVVHKMSFS the amyloid nucleation score was “inactive”.
DRSDNRSGYFMINVVYNDGE showed an amyloid nucleation score of 0.724 ± 0.18.
For MLLDTLCNHLRVYKYVRGDG, the amyloid nucleation score was “inactive”.
In the case of TMKGTSKVSLLVSSGASRMG, the amyloid nucleation score is reported as “inactive”.
With WIGVQCP the amyloid nucleation score was “inactive”.
For LVFPVKKSLVCEGV, the amyloid nucleation score was “inactive”.
With FVYILGTMMNRRGFDPWIGD the amyloid nucleation score was 0.631 ± 0.32.
For DYIRHSFHCVLILSDKSHFS, the amyloid nucleation score was “inactive”.
In the case of NGFSTVTSSPGLCFLYRMFI, the amyloid nucleation score is reported as “inactive”.
With LLYFSVLRSEL the amyloid nucleation score was “inactive”.
With LAAEFTFMRPARGYFGNKVG the amyloid nucleation score was “inactive”.
In the case of QWGGSNIVRYRNFIVGLFVR, the amyloid nucleation score is reported as “inactive”.
For WNYPFNFQF, the amyloid nucleation score was “inactive”.
In the case of HSSCGNEVFFDSSVGSNRIL, the amyloid nucleation score is reported as “inactive”.
For QLALPHKPHWGNWL, the amyloid nucleation score was “inactive”.
For MMTTGLLGVLTSCNSMT, the amyloid nucleation score was “inactive”.
In the case of FNSGCYT, the amyloid nucleation score is reported as “inactive”.
For MLCAPVANLYCKHPWDS, the amyloid nucleation score was “inactive”.
In the case of GWYLFC, the amyloid nucleation score is reported as “inactive”.
In the case of LQAQMYCLTTLWSWFGRVSR, the amyloid nucleation score is reported as “inactive”.
For WYRLRYSQST, the amyloid nucleation score was “inactive”.
For AYKMTFWVQNYVFVYSFLFV, the amyloid nucleation score was 0.419 ± 0.23.
For VSSFFSLPCTSAPVIDWVGV, the amyloid nucleation score was “inactive”.
Substance TPIHRL has an amyloid nucleation score of 0.451 ± 0.16.
In the case of FVDLSSIDYVF, the amyloid nucleation score is reported as “inactive”.
In the case of LYFCKNKYTCWSACVNSGFN, the amyloid nucleation score is reported as “inactive”.
In the case of CTHLLFCPMGRVSTCSLKME, the amyloid nucleation score is reported as “inactive”.
For MLWLNNGGLYWIALIFEMSS, the amyloid nucleation score was “inactive”.
In the case of RWCYLTEKKFSGLFNL, the amyloid nucleation score is reported as “inactive”.
With FVCFIKLRLVDSRIVTNFQR the amyloid nucleation score was “inactive”.
In the case of FLKLGDSGRVYLLCFLAQVS, the amyloid nucleation score is reported as “inactive”.
In the case of LQLWVSFSSVKLCYCISHSF, the amyloid nucleation score is reported as “inactive”.
In the case of SSRRSNYASSDPIWIVSLFG, the amyloid nucleation score is reported as “inactive”.
With GWNSFPRPLYPRWDNSESAS the amyloid nucleation score was “inactive”.
In the case of YAALILGVVQCAGLILFYVI, the amyloid nucleation score is reported as “inactive”.
For RYYLGMHFINCMRVRVP, the amyloid nucleation score was “inactive”.
With NKVPVGG the amyloid nucleation score was “inactive”.
HRDETGVHAVALSKSVWYKW gave an amyloid nucleation score of -1.07 ± 1.1.
